Experimental data: article PMC5756042, “Molecular Defects of the Disease-Causing Human Arrestin-1 C147F Mutant” (Investigative Ophthalmology & Visual Science, 2018)
Positions count from the first letter of the chain named. In names and notes the source's numbering stands.

B1: human arrestin-1 C147F mutant (natural protein, UniProt P10523 1-405, looked up)
chain: MAASGKTSKSEPNHVIFKKISRDKSVTIYLGNRDYIDHVSQVQPVDGVVLVDPDLVKGKKVYVTLTCAFRYGQEDIDVIGLTFRRDLYFSRVQVYPPVGAASTPTKLQESLLKKLGSNTYPFLLTFPDYLPCSVMLQPAPQDSGKSFGVDFEVKAFATDSTDAEEDKIPKKSSVRLLIRKVQHAPLEMGPQPRAEAAWQFFMSDKPLHLAVSLNKEIYFHGEPIPVTVTVTNNTEKTVKKIKAFVEQVANVVLYSSDYYVKPVAMEEAQEKVPPNSTLTKTLTLLPLLANNRERRGIALDGKIKHEDTNLASSTIIKEGIDRTVLGILVSYQIKVKLTVSGFLGELTSSEVATEVPFRLMHPQPEDPAKESYQDANLVFEEFARHNLKDAGEAEEGKRDKNDVDE
modifications: labeled with 14C-Leu and 3H-Leu
notes: human arrestin-1 with the disease-causing C147F mutation (dominant retinitis pigmentosa in humans), transcription construct in pGEM2; The mutation occurs in human patients; here it was introduced into the transcription construct by PCR; also called CF; source: in vitro translated (rabbit reticulocyte lysate), radiolabelled
B2: human arrestin-1 C147I mutant (natural protein, UniProt P10523 1-405, looked up)
chain: B1 chain with F147I
modifications: labeled with 14C-Leu and 3H-Leu
notes: source: in vitro translated (rabbit reticulocyte lysate), radiolabelled
B3: human arrestin-1 C147L mutant (natural protein, UniProt P10523 1-405, looked up)
chain: B1 chain with F147L
modifications: labeled with 14C-Leu and 3H-Leu
notes: as for B2

Target: T1, light-activated unphosphorylated rhodopsin (bovine, UniProt P02699 1-348)
T1 construct: source: purified from cow eyes; unphosphorylated; rhodopsin-containing membranes
Experiment: radioligand binding; direct binding assay: 1 nM radiolabelled arrestin-1 (50 fmol) with 0.3 μg P-Rh* or Rh* (0.22 μM) in 50 μL of 50 mM Tris-HCl pH 7.4, 100 mM potassium acetate, 1 mM EDTA, 1 mM dithiothreitol, 5 minutes at 37°C under room light; bound and free separated at 4°C on Sepharose 2B-CL; scintillation counting; nonspecific binding subtracted
Conditions: one partner purified

T1 sequence (P02699 whole entry): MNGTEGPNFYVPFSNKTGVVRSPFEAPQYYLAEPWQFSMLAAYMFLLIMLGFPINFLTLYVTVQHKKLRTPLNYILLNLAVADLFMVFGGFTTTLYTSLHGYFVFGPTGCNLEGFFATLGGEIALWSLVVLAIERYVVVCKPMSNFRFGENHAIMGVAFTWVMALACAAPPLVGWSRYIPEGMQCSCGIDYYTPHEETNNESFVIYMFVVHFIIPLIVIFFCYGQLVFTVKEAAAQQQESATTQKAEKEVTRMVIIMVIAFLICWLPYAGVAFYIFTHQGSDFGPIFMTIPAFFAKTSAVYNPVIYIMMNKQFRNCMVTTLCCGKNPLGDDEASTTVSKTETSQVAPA

Binder | fold increase of Rh* binding against WT [fold]
B1 | > 2
B2 | > 2
B3 | > 2
